Laboratory results taken from patent publication US11078465B2, “Alcohol dehydrogenase mutant and application thereof in synthesis of diaryl chiral alcohols” (Jiangnan University, priority 2018, dated 2021).
Positions count from the first letter of the chain named. Numbers in names are those of the source. Where “and” joins values, the source holds several entries; their conditions need not be identical. Identical values can stand only once. Entries after “also recorded” stand apart in the source; their conditions may differ.

How the values were obtained:
Format in all cases: biochemical
[1] = Asymmetric reduction in 20 mL biocatalytic system, conversion
Protocol: (§1) In an embodiment of the present disclosure, a chromatographic analysis method is as follows: 100 μL of reactant liquid is taken, 500 μL of ethyl acetate is added, shaking is performed for 1-2 min, centrifugation is performed at 12,000 rpm for 2-5 min, supernatant liquid is taken into a centrifuge tube, after an organic phase naturally volatilizes completely, 500 μL of chromatographically pure ethanol is added, and chiral liquid chromatography and gas chromatography are performed to analyze the transformation rate and the ee value.
The pure (R)-CPMA were recrystallized from ethyl acetate at 4° C. and gave 99.9% optical purity. […] Besides, the conversion cannot reach 100% with 24 h in the asymmetric reduction of (4-bromophenyl)-(phenyl)-methanone and p-nitrobenzophenone due to the low enzyme activity.

[2] = Stereoselectivity on different substrates; conditions: configuration in brackets
Protocol: as §1
(§2) Method for determining optical purity ee:
(§3) As: molar concentration of (S)-CPMA obtained by liquid chromatography; and AR: molar concentration of (R)-CPMA obtained by liquid chromatography.
(§4) The reduction on prochiral carbonyl compounds by the alcohol dehydrogenase mutants obtained in Example 3 was studied. The pro-chiral carbonyl compounds include (4-chlorophenyl)-(pyridin-2-yl)-methanone (CPMK), phenyl-(pyridin-2-yl)-methanone, (4-chlorophenyl)-(phenyl)-methanone, (4-bromophenyl)(phenyl)methanone, (4-fluorophenyl)(phenyl)methanone, (4-methoxyphenyl)-(phenyl)-methanone, (4-nitrophenyl)(phenyl)methanone, 1-(pyridin-2-yl)ethanone, acetophenone, 4′-Chloroacetophenone, 4-chlorophenacyl chloride, ethyl 2-oxo-4-phenylbutanoate (OPBE), ethyl 4-chloro-3-oxobutanoate, and methyl 2-oxo-2-phenylacetate.

[3] = Stereoselectivity on different substrates; conditions: for Stereoselectivity (ee): configuration in brackets
Protocol: as §1, §2, §3, §4
All the products above were recrystallized from ethyl acetate and gave more than 99.9% optical purity.

[4] = Stereoselectivity (ee) of CPMK reduction, chiral liquid chromatography
Protocol: as §1, §2, §3

[5] = Substrate specificity, specific activity
Protocol: Adopting a total reaction system of 200 μL, including: 1.0 mM NADPH, 1.0 mM substrate CPMK and sodium phosphate buffer (PBS, 100 mM, pH 7.0), fully and evenly mixing, maintaining at 30° C. for 2 min, adding an appropriate amount of enzyme solution, and detecting the change in light absorption at 340 nm.
The enzyme activity was calculated by the following formula: Enzyme activity (U)=EW×V×10^3/(6220×I);
in the formula, EW is the change in absorbance at 340 nm in 1 min; V is the volume of a reaction solution in mL; 6220 is the molar extinction coefficient of NADPH in L/mol·cm); and 1 is the optical path distance in cm. One activity unit (U) corresponds to the amount of enzyme required to catalyze the oxidation of 1 μmol NADPH per minute under the above conditions.
as §4

[6] = substrate [drawing 14], likely CPMK (values partly match Table 4)
[7] = substrate [drawing 10], acetophenone
[8] = substrate [drawing 11], 4-chloroacetophenone
[9] = substrate [drawing 12], 4-chlorobenzoyl chloride
[10] = substrate [drawing 16], (4-bromophenyl)-(phenyl)-methanone
[11] = substrate [drawing 17], p-nitrobenzophenone
[12] = product configuration in brackets
[13] = substrate [drawing 6], 4-chlorophenacyl chloride
[14] = substrate [drawing 9], ethyl 4-chloro-3-oxobutanoate

B1: E214G/S237C: glycine for glutamate at position 214 and cysteine for serine at position 237 of SEQ ID No. 2 (protein)
chain: MSVLISGASGYIAKHIVRVLLEQNYKVIGTVRSQDKADKLLKQYNNPNLSYEIVPEIANLDAFDDIFKKHGKEIKYVIHAASPVNFGAKDLEKDLVIPAINGTKNMFEAIKKYAPDTVERVVMTASYASIMTPHRQNDPTLTLDEETWNPVTEENAYENVFTAYCASKTFAEKEAWKFVKENSDAVKFKLTTIHPSFVFGPQNFDEDVTKKLNGTCEIINGLLHAPFDTKVEKTHFCQFIDVRDVAKTHVLGFQKDELINQRLLLCNGAFSQQDIVNVFNEDFPELKGQFPPEDKDTDLNKGVTGCKIDNEKTKKLLAFEFTPFHKTIHDTVYQILHKEGRV
modifications: Protein translated from synthetic DNA
Conversion rate ([1]; acetophenone 100 mM, 1 h): 42% | Conversion rate ([1]; acetophenone 100 mM, 2 h): 53% | Conversion rate ([1]; acetophenone 100 mM, 3 h): 65% | Conversion rate ([1]; acetophenone 100 mM, 4 h): 77% | Conversion rate ([1]; acetophenone 100 mM, 6 h): 95% | Conversion rate ([1]; acetophenone 100 mM, 8 h): 99.0% | Conversion rate ([1]; acetophenone 100 mM, 12 h): >99.9% | Conversion rate ([1]; acetophenone 100 mM, 24 h): >99.9% | Conversion rate ([1]; acetophenone 200 mM, 1 h): 35% | Conversion rate ([1]; acetophenone 200 mM, 2 h): 49% | Conversion rate ([1]; acetophenone 200 mM, 3 h): 60% | Conversion rate ([1]; acetophenone 200 mM, 4 h): 72% | Conversion rate ([1]; acetophenone 200 mM, 6 h): 85.9% | Conversion rate ([1]; acetophenone 200 mM, 8 h): 93.6% | Conversion rate ([1]; acetophenone 200 mM, 12 h): 99.2% | Conversion rate ([1]; acetophenone 200 mM, 24 h): 99.7% | Conversion rate ([1]; acetophenone 500 mM, 1 h): 20.9% | Conversion rate ([1]; acetophenone 500 mM, 2 h): 34.5% | Conversion rate ([1]; acetophenone 500 mM, 3 h): 49.6% | Conversion rate ([1]; acetophenone 500 mM, 4 h): 62.6% | Conversion rate ([1]; acetophenone 500 mM, 6 h): 77.9% | Conversion rate ([1]; acetophenone 500 mM, 8 h): 88.6% | Conversion rate ([1]; acetophenone 500 mM, 12 h): 92.9% | Conversion rate ([1]; acetophenone 500 mM, 24 h): 99.2% | Stereoselectivity (ee) ([2]; substrate [drawing 13]): 51.9 (R) | Stereoselectivity (ee) [2, 6]: 43.2 (S) | Stereoselectivity (ee) ([2]; substrate [drawing 15]): 86.2 (R) | Stereoselectivity (ee) ([2]; substrate [drawing 18]): 93.8 (S) | Stereoselectivity (ee) [3, 7]: 99.5 (R) | Stereoselectivity (ee) [3, 8]: 93.8 (R) | Stereoselectivity (ee) [3, 9]: 96.2 (R) | Stereoselectivity (ee) [3, 10]: 91.4 (R) | Stereoselectivity (ee) [3, 11]: 93.3 (R) | ee value ([3]; substrate acetophenone, R configuration products): 99.5% | configuration of product / stereoselectivity in words [4]: inversion from the R configuration to the S configuration; also recorded: (S)-CPMA | ee value, (S)-CPMA ([4]; S configuration product): 75.5% | e.e. [4, 12]: 75.5 (S) | specific activity ([5]; substrate [drawing 1]): 0.15 U/mg | specific activity ([5]; substrate [drawing 2]): 0.07 U/mg | specific activity ([5]; substrate [drawing 3]): 0.12 U/mg | specific activity ([5]; substrate [drawing 4]): 3.10 U/mg | specific activity ([5]; substrate [drawing 5]): 4.84 U/mg | specific activity [5, 13]: 9.81 U/mg | specific activity ([5]; substrate [drawing 7]): 10.26 U/mg | specific activity ([5]; substrate [drawing 8]): 21.25 U/mg | specific activity [5, 14]: 1.55 U/mg

B2: WT: wild type alcohol dehydrogenase KpADH, amino acid sequence SEQ ID No. 2 (protein)
chain: B1 chain with G214E, C237S
modifications: Protein translated from synthetic DNA
ee in asymmetric synthesis of (R)-CPMA ([1]; 20 mL biocatalytic system, 30° C., pH 7.5): 82% | Conversion rate ([1]; CPMK 100 mM, 1 h): 50.5% | Conversion rate ([1]; CPMK 100 mM, 2 h): 65.5% | Conversion rate ([1]; CPMK 100 mM, 3 h): 79.5% | Conversion rate ([1]; CPMK 100 mM, 4 h): 88.8% | Conversion rate ([1]; CPMK 100 mM, 6 h): 98.5% | Conversion rate ([1]; CPMK 100 mM, 8 h): >99.9% | Conversion rate ([1]; CPMK 100 mM, 12 h): >99.9% | Conversion rate ([1]; CPMK 100 mM, 24 h): >99.9% | Conversion rate ([1]; CPMK 200 mM, 1 h): 35.6% | Conversion rate ([1]; CPMK 200 mM, 2 h): 46.9% | Conversion rate ([1]; CPMK 200 mM, 3 h): 62.0% | Conversion rate ([1]; CPMK 200 mM, 4 h): 75.5% | Conversion rate ([1]; CPMK 200 mM, 6 h): 95.6% | Conversion rate ([1]; CPMK 200 mM, 8 h): 98.8% | Conversion rate ([1]; CPMK 200 mM, 12 h): 99.4% | Conversion rate ([1]; CPMK 200 mM, 24 h): 99.7% | Conversion rate ([1]; CPMK 500 mM, 1 h): 22.5% | Conversion rate ([1]; CPMK 500 mM, 2 h): 30% | Conversion rate ([1]; CPMK 500 mM, 3 h): 55.6% | Conversion rate ([1]; CPMK 500 mM, 4 h): 66.5% | Conversion rate ([1]; CPMK 500 mM, 6 h): 80.2% | Conversion rate ([1]; CPMK 500 mM, 8 h): 93.2% | Conversion rate ([1]; CPMK 500 mM, 12 h): 95.6% | Conversion rate ([1]; CPMK 500 mM, 24 h): 99.2% | Stereoselectivity (ee) ([2]; substrate [drawing 13]): 27.5 (R) | Stereoselectivity (ee) [2, 6]: 83.7 (R) | Stereoselectivity (ee) ([2]; substrate [drawing 15]): 52.4 (S) | Stereoselectivity (ee) ([2]; substrate [drawing 18]): 27.3 (R) | Stereoselectivity (ee) [3, 7]: 88.6 (R) | Stereoselectivity (ee) [3, 8]: 92.9 (R) | Stereoselectivity (ee) [3, 9]: 95.2 (R) | Stereoselectivity (ee) [3, 10]: 70.5 (S) | Stereoselectivity (ee) [3, 11]: 37.6 (R) | ee value, (R)-CPMA ([4]; R configuration product): 82% and 81.7% | e.e. [4, 12]: 81.7 (R) | ee % [4, 12]: 81.7 (R) % | specific activity ([5]; substrate [drawing 1]): 0.99 U/mg | specific activity ([5]; substrate [drawing 2]): 1.34 U/mg | specific activity ([5]; substrate [drawing 3]): 4.15 U/mg | specific activity ([5]; substrate [drawing 4]): 4.07 U/mg | specific activity ([5]; substrate [drawing 5]): 12.09 U/mg | specific activity [5, 13]: 20.67 U/mg | specific activity ([5]; substrate [drawing 7]): 27.02 U/mg | specific activity ([5]; substrate [drawing 8]): 39.77 U/mg | specific activity [5, 14]: 41.84 U/mg
